# Experimental data taken from paper PMC2119236.
# B1: p88 (88-kD protein), murine (natural protein)
# chain: HDGHDDDAIDIEDDLDDVIEEVEDSKSKSDASTPPSPKVTYKAPVPTGEVYFADSFDRGSLSGWILSKAKKDDTDDEIAKYDGKWEVDEMKETKLPGDKGLVLMSRAKHHAISAKLNKPFLFDTKPLIVQYEVNFQNGIECGGAYVKLLSKTAELSLDQFHDKTPYTIMFGPDKCGEDYKLHFIFRHKNPKTGVYEEKHAKRPDADLKTYFTDKKTHLYTLILNPDNSFEILVDQSVVNSGNLLNDMTPPVNPSREIEDPEDRKPEDWDERPKIADPDAVKPDDWDEDAPSKIPDEEATKPEGWLDDEPEYIPDPDAEKPEDWDEDMDGEWEAPQIANPKCESAPGCGVWQRPMIDNPNYKGKWKPPMIDNPNYQGIWKPRKIPNPDFFEDLEPFKMTPFSAIGLELWSMTSDIFFDNFIISGDRRVVDDWANDGWGLKKAADGAAEPGVVLQMLEAAEERPWLWVVYILTVALPVFLVILFCCSGKKQSNAMEYKKTDAPQPDVKDEEGKEEEKNKRDEEEEEEKLEEKQKSDAEEDGVTGSQDEEDSKPKAEEDEILNRSPRNRKPRRE
# Key:
# [1] = target: H-2Kb class I H chain, beta2m-free, in R1E-Kb cells (mouse); assay: cross-linking
# [2] = target: H-2Db class I H chain, beta2m-free, in R1E-Db cells (mouse); assay: cross-linking
# Chain of H-2Db class I H chain, beta2m-free, in R1E-Db cells (mouse) (P01899 25-362): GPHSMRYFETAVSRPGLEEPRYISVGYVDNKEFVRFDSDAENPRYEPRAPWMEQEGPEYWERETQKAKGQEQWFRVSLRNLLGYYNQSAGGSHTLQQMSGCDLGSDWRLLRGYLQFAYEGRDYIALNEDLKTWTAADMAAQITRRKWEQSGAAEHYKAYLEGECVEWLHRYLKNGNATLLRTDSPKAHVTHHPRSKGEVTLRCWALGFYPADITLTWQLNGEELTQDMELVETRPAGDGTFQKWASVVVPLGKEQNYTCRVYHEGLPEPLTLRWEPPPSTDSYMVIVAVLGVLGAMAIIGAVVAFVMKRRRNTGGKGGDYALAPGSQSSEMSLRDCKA
# Chain of H-2Kb class I H chain, beta2m-free, in R1E-Kb cells (mouse) (P01901 22-369): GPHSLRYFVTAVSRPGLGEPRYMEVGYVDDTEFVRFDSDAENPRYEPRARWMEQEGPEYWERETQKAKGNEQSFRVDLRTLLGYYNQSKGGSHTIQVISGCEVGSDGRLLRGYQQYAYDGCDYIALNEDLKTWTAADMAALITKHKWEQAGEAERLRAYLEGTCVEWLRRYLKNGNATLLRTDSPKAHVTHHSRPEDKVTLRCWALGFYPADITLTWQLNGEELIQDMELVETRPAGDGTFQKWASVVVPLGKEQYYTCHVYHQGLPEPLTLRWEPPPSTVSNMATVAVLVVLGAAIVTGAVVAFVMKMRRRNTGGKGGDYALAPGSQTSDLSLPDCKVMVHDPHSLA
binder,measurement,setting,value
B1,percent of H chains crosslinked to p88,[1],50%
same,percent of H chains crosslinked to p88,[2],25%
